To fix the notation:
B5: murine βB1-crystallin, wild type recombinant (natural protein, UniProt Q9WVJ5 1-250, looked up)
chain: MSQAAKASATTAVNPGPDGKGKGAPSTGPAPAPGPTPVPASVPRPAAKVGDLPPGSYRLIVFEQENFQGRRVEFSGECLNLGDRGFDRVRSLIVVSGPWVAFEQSAFRGEMFVLEKGEYPRWDTWTSSYRSDRLMSFRPIRMDSQEHKICLFEGANFKGNTMEIQEDDVPSLWVYGFCDRVGSITVSGGTWVGYQYPGYRGYQYLLEPGDFRHWNEWGAFQPQMQAVRRLRDRQWHQEGCFPVLTAEPPK
notes: βB1-crystallin, mouse, wild type recombinant; monomer printed as 28 kDa; source: E. coli, purified (ion-exchange and size-exclusion chromatography)

Data set [1] addresses B5. The data set can be described thus: SEC; equimolar mixture (~20 µM each) incubated 24 h, Superdex 75 HR10/30, Buffer A (50 mM Tris-HCl, 1 mM EDTA, 0.15 M NaCl, 1 mM TCEP, pH 7.5), 0.5 ml/min. Particulars: both partners purified.
Data set [2] deals with the molecule itself. The data set can be described thus: AUC; sedimentation equilibrium at 5°C increments over 5-30°C, 0.5 mg/ml, Buffer A pH 7.5; enthalpy from van't Hoff plots of ln(Kd/Co) against 1/T; dimer to monomers (βB1, βA3), heterotetramer to heterodimers (βB1/βA3).
Data set [3] concerns the molecule itself. Described as above. The source holds these as a separate data set.
Data set [4] deals with the molecule itself. As to the kind of experiment: AUC; sedimentation equilibrium, 18,500 rpm, 10 °C, Buffer A (50 mM Tris-HCl, 1 mM EDTA, 0.15 M NaCl, 1 mM TCEP, pH 7.5), 0.5 mg/ml; dimer to monomers.
Data set [5] deals with the molecule itself. The data set can be described thus: AUC; sedimentation equilibrium, 18,500 rpm, 5 °C, Buffer A (50 mM Tris-HCl, 1 mM EDTA, 0.15 M NaCl, 1 mM TCEP, pH 7.5), 0.5 mg/ml; dimer to monomers.
Data set [6] concerns the molecule itself. The data set can be described thus: AUC; sedimentation equilibrium, 18,500 rpm, 15 °C, Buffer A (50 mM Tris-HCl, 1 mM EDTA, 0.15 M NaCl, 1 mM TCEP, pH 7.5), 0.5 mg/ml; dimer to monomers.
Data set [7] concerns the molecule itself. As to the kind of experiment: AUC; sedimentation equilibrium, 18,500 rpm, 25 °C, Buffer A (50 mM Tris-HCl, 1 mM EDTA, 0.15 M NaCl, 1 mM TCEP, pH 7.5), 0.5 mg/ml; dimer to monomers.
Data set [8] deals with the molecule itself. The data set can be described thus: AUC; sedimentation equilibrium, 18,500 rpm, 20 °C, Buffer A (50 mM Tris-HCl, 1 mM EDTA, 0.15 M NaCl, 1 mM TCEP, pH 7.5), 0.5 mg/ml; dimer to monomers.
Data set [9] deals with the molecule itself. As to the kind of experiment: AUC; sedimentation equilibrium, 18,500 rpm, 30 °C, Buffer A (50 mM Tris-HCl, 1 mM EDTA, 0.15 M NaCl, 1 mM TCEP, pH 7.5), 0.5 mg/ml; dimer to monomers.
Data set [10] concerns the molecule itself. The data set can be described thus: AUC; sedimentation equilibrium of the equimolar βB1/βA3 mixture, 18,500 rpm, 30 °C, Buffer A pH 7.5, 0.5 mg/ml; heterotetramer to heterodimers.
Data set [11] concerns the molecule itself. The data set can be described thus: AUC; sedimentation equilibrium of the equimolar βB1/βA3 mixture, 18,500 rpm, 15 °C, Buffer A pH 7.5, 0.5 mg/ml; heterotetramer to heterodimers.
Data set [12] deals with the molecule itself. The data set can be described thus: AUC; sedimentation equilibrium of the equimolar βB1/βA3 mixture, 18,500 rpm, 10 °C, Buffer A pH 7.5, 0.5 mg/ml; heterotetramer to heterodimers.
Data set [13] concerns the molecule itself. The data set can be described thus: AUC; sedimentation equilibrium of the equimolar βB1/βA3 mixture, 18,500 rpm, 5 °C, Buffer A pH 7.5, 0.5 mg/ml; heterotetramer to heterodimers.
Data set [14] deals with the molecule itself. The data set can be described thus: AUC; sedimentation equilibrium of the equimolar βB1/βA3 mixture, 18,500 rpm, 25 °C, Buffer A pH 7.5, 0.5 mg/ml; heterotetramer to heterodimers.
Data set [15] concerns the molecule itself. The data set can be described thus: AUC; sedimentation equilibrium of the equimolar βB1/βA3 mixture, 18,500 rpm, 16 h, 20°C, Buffer A pH 7.5; heterotetramer to heterodimers.

B1: human βA3-crystallin, wild type recombinant (natural protein, UniProt P05813 1-215, looked up)
chain: METQAEQQELETLPTTKMAQTNPTPGSLGPWKITIYDQENFQGKRMEFTSSCPNVSERSFDNVRSLKVESGAWIGYEHTSFCGQQFILERGEYPRWDAWSGSNAYHIERLMSFRPICSANHKESKMTIFEKENFIGRQWEISDDYPSLQAMGWFNNEVGSMKIQSGAWVCYQYPGYRGYQYILECDHHGGDYKHWREWGSHAQTSQIQSIRRIQQ
notes: βA3-crystallin, human, wild type recombinant; monomer printed as 25 kDa; source: E. coli, purified (ion-exchange and size-exclusion chromatography)
As for B1, in data set [1], the binding result is recorded as “binds”. In data set [2], the “dH (van't Hoff, ΔCp = 0)” value was 8 ± 3 kcal/mol and the “dH (van't Hoff, ΔCp nonzero)” value is 7.2 ± 2.5 kcal/mol. Further, the “stoichiometry N” value in [3] is 2.

B2: human βA3-crystallin (natural protein, UniProt P05813 1-215, looked up)
chain: METQAEQQELETLPTTKMAQTNPTPGSLGPWKITIYDQENFQGKRMEFTSSCPNVSERSFDNVRSLKVESGAWIGYEHTSFCGQQFILERGEYPRWDAWSGSNAYHIERLMSFRPICSANHKESKMTIFEKENFIGRQWEISDDYPSLQAMGWFNNEVGSMKIQSGAWVCYQYPGYRGYQYILECDHHGGDYKHWREWGSHAQTSQIQSIRRIQQ
notes: βA3-crystallin, human, wild type recombinant; monomer 25 kDa as printed; source: E. coli, purified (ion-exchange and size-exclusion chromatography)
As to B2, the Kd is 6.47 µM in data set [4]; 11.8 µM in [5]; 5.32 µM in data set [6]; 1.62 µM in [7]; 5.21 µM in data set [8]; 2.07 µM in data set [9].

B3: βB1/βA3 heterodimer (murine βB1 with human βA3) (complex, murine | human)
chain 1: MSQAAKASATTAVNPGPDGKGKGAPSTGPAPAPGPTPVPASVPRPAAKVGDLPPGSYRLIVFEQENFQGRRVEFSGECLNLGDRGFDRVRSLIVVSGPWVAFEQSAFRGEMFVLEKGEYPRWDTWTSSYRSDRLMSFRPIRMDSQEHKICLFEGANFKGNTMEIQEDDVPSLWVYGFCDRVGSITVSGGTWVGYQYPGYRGYQYLLEPGDFRHWNEWGAFQPQMQAVRRLRDRQWHQEGCFPVLTAEPPK
chain 2: METQAEQQELETLPTTKMAQTNPTPGSLGPWKITIYDQENFQGKRMEFTSSCPNVSERSFDNVRSLKVESGAWIGYEHTSFCGQQFILERGEYPRWDAWSGSNAYHIERLMSFRPICSANHKESKMTIFEKENFIGRQWEISDDYPSLQAMGWFNNEVGSMKIQSGAWVCYQYPGYRGYQYILECDHHGGDYKHWREWGSHAQTSQIQSIRRIQQ
notes: βB1-crystallin, mouse, wild type recombinant; as the chain of Wm1; βA3-crystallin, human, wild type recombinant; as the chain of Wm2; also called βB1/βA3 complex; source: equimolar mixture (~20 µM each) of βB1 and βA3 purified from E. coli, incubated at room temperature for 24 h
Regarding B3, the Kd was found to be 22.1 µM in data set [10]; 1.14 µM in data set [11]; 0.54 µM in [12]; 1.21 µM in [13]; 12.8 µM in data set [14].

B4: βB1/βA3 heterodimer (murine βB1 with human βA3), the unit of the heterodimer-heterotetramer equilibrium (complex, murine | human)
chain 1: MSQAAKASATTAVNPGPDGKGKGAPSTGPAPAPGPTPVPASVPRPAAKVGDLPPGSYRLIVFEQENFQGRRVEFSGECLNLGDRGFDRVRSLIVVSGPWVAFEQSAFRGEMFVLEKGEYPRWDTWTSSYRSDRLMSFRPIRMDSQEHKICLFEGANFKGNTMEIQEDDVPSLWVYGFCDRVGSITVSGGTWVGYQYPGYRGYQYLLEPGDFRHWNEWGAFQPQMQAVRRLRDRQWHQEGCFPVLTAEPPK
chain 2: METQAEQQELETLPTTKMAQTNPTPGSLGPWKITIYDQENFQGKRMEFTSSCPNVSERSFDNVRSLKVESGAWIGYEHTSFCGQQFILERGEYPRWDAWSGSNAYHIERLMSFRPICSANHKESKMTIFEKENFIGRQWEISDDYPSLQAMGWFNNEVGSMKIQSGAWVCYQYPGYRGYQYILECDHHGGDYKHWREWGSHAQTSQIQSIRRIQQ
notes: βB1-crystallin, mouse, wild type recombinant, as m1; βA3-crystallin, human, wild type recombinant, as m2; The heterodimer is the unit of the best-fit model; also called βB1/βA3 complex; [βB1/βA3]4 (the tetramer); source: equimolar mixture (~20 µM each) of the purified E. coli proteins, incubated 24 h
B4: in data set [2], the “dH (van't Hoff, ΔCp = 0)” value is -24.5 ± 6.2 kcal/mol and the “dH (van't Hoff, ΔCp nonzero)” value is -29.6 ± 8.1 kcal/mol. Also, the Kd in [15] was 8.78 µM.
In the case of B5, in data set [2], the “dH (van't Hoff, ΔCp = 0)” value is -13.3 ± 5.6 kcal/mol and the “dH (van't Hoff, ΔCp nonzero)” value was -21.2 ± 4.6 kcal/mol. In addition, the “stoichiometry N” value in [3] was found to be 2.

B6: murine βB1-crystallin (natural protein, UniProt Q9WVJ5 1-250, looked up)
chain: MSQAAKASATTAVNPGPDGKGKGAPSTGPAPAPGPTPVPASVPRPAAKVGDLPPGSYRLIVFEQENFQGRRVEFSGECLNLGDRGFDRVRSLIVVSGPWVAFEQSAFRGEMFVLEKGEYPRWDTWTSSYRSDRLMSFRPIRMDSQEHKICLFEGANFKGNTMEIQEDDVPSLWVYGFCDRVGSITVSGGTWVGYQYPGYRGYQYLLEPGDFRHWNEWGAFQPQMQAVRRLRDRQWHQEGCFPVLTAEPPK
notes: βB1-crystallin, mouse, wild type recombinant; monomer 28 kDa as printed; source: E. coli, purified (ion-exchange and size-exclusion chromatography)
B6: the Kd in data set [4] worked out at 1.64 µM; in data set [5], 3.99 µM; in data set [6], 1.91 µM; in data set [7], 12.6 µM; in data set [8] it was 4.71 µM; in data set [9] it was 17.6 µM.

(Values after paper PMC3253074, “βB1-Crystallin: Thermodynamic Profiles of Molecular Interactions” (PLoS ONE, 2012).)
